Drawing on article PMC5758537, this text covers FRET efficiency and percent decrease of D1R co-immunoprecipitated with D2R for 2 substances.

Where only a bound is given, the exact number is not on record here.

The target of experiment [1] is dopamine D2 receptor (rat, endogenous) (rat (endogenous in rat striatum)) (UniProt P61169). Kind of experiment: FRET or BRET; in situ confocal FRET on rat brain sections, NAc (core and shell); anti-D1R-Alexa 488 (donor) and anti-D2R-Alexa 568 (acceptor) directly conjugated.
Experiment [2] has the same target. Kind of experiment: co-IP; rat NAc protein homogenates (300 ug), anti-D2R antibody overnight at 4 C, protein G/A, blot with anti-D1R; rats treated with saline or SKF 83959, with or without TAT-D1 (300 pmol, i.c.v.).

UniProt P61169, sequence (P61169 whole entry): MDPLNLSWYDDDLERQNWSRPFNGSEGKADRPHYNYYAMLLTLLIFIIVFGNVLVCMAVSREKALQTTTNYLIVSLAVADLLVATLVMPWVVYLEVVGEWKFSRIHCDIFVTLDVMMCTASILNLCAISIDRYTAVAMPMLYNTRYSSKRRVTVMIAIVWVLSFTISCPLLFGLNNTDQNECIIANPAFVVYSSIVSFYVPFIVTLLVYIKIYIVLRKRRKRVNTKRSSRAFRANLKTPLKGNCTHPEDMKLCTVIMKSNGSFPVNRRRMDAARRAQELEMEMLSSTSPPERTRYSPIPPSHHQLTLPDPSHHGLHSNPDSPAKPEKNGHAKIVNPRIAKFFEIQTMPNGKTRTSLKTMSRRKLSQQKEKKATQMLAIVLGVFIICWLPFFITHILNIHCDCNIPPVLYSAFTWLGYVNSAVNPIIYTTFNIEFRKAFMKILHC

As to “dopamine D1 receptor (rat, endogenous) (from UniProt P18901 1-446)”, in experiment [1], the FRET efficiency amounted to 0.36. Turning to TAT-D1 peptide, the percent decrease of D1R co-immunoprecipitated with D2R in experiment [2] was more than 50%.
